This note sets out measurements from US20020065240A1.

The test has as its target VEGF mitogenic receptors. Kind of test: cell-based or functional assay.

“purified human VEGF165 (R&D Systems, expressed in Sf21 cells) (from UniProt P15692 27-191) (ligand)” came in with a half-maximal activity, HUVEC mitogenesis ([3H]thymidine incorporation) of 17 to 19 ng/mL.
